# T1: SUDV GPdTM (Sudan virus (SUDV), UniProt Q66814 33-637)
# T1 sequence: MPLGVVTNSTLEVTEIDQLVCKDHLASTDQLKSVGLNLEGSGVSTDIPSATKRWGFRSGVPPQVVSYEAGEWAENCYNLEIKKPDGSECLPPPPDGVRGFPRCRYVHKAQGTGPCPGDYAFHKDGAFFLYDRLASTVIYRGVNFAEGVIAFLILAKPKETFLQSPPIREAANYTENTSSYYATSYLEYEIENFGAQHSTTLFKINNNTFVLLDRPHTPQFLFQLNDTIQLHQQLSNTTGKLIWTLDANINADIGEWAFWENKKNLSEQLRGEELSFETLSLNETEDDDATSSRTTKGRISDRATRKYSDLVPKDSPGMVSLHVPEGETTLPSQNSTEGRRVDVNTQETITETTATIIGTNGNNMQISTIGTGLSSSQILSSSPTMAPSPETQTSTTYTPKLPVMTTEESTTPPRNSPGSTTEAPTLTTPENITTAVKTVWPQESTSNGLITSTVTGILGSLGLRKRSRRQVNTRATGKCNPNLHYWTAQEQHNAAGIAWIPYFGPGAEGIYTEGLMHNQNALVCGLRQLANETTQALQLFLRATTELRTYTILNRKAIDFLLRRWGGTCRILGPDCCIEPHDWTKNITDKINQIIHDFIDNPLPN
# Legend:
# [1] = target: T1, SUDV GPdTM
# [2] = target: T2, MARV GPddmuc (Marburg virus (MARV), UniProt P35253 19-637); test: ELISA, purified GPddmuc immobilized, serial dilutions of purified mouse mAb
# T2 construct: also called Marburg virus glycoprotein GPddmuc
# [3] = target: SUDV GPddmuc (Sudan virus (SUDV), UniProt Q66814 33-632)
Binder,EC50 [1],binding result [2],EC50 [3]
"murine monoclonal antibody 2D8 (antibody, V domains shown) VH: EVQLQESGGELVRPGTSVKISCKASGYTFTNFWLGWIKERPGHGLEWIGDIYPGGHYTNYNENFKGKATLTADTSSNTAYMQVSSLTSEDSAVYFCFTQYYDMDYWGQGTSVTVSS VL: not shown",> 10 µg/mL,–,–
"murine monoclonal antibody 17C6 (antibody, V domains shown) VH: EVQLQESGPGLVQPSQSLSITCTVSGFSLTSYGVHWVRQSPGKGLEWLGVIWSGGSTDYNAAFISRLSISKDNSKSQVFFKMNSLQADDTAIYYCARNWFDYDNYYSMDYWGQGTSVTVSS VL: DIQMTQTTSSLSASLGDRVTISCRASQDISNYLNWYQQKPDGTVKLLIYYTSRLHSGVPSRFSGSGSGTDFSLTISNQEPEDIATYYCQQYSNLPWTFGGGTKLEIKR",2 µg/mL,–,–
"murine monoclonal antibody 4B8 (antibody, V domains shown, also called m4B8) VH: EVQLQESGPGILQPSQTLSLTCSFSGFSLRTLGMGVGWIRQSSGKGLEWLAHIWWSDENYYNPALKSRLTISKDTSKNQVFLRIANVDTAETATYYCARIAYDGYFDYWGQGTSLTVSS VL: KFPSQLLLLLLFGIPGDRVTITCKASEDIYNRLAWYQQKPGNAPRLLISGATSLETGVPSRFSGSGSGKDYTLSITSLQTEDVATYYCQQYWTTPWTFGGGTKLEIKR",0.088 µg/mL,no binding,0.095 µg/mL
"murine monoclonal antibody 16G8 (antibody, V domains shown, also called m16G8) VH: EVQLQESGPGLVKPGASVKISCKASGYSFTGYYMNWVKQSPEKSLEWIGEINPSTGGTTYNQKFKAKATLTVDKSSSTAYMQLKSLTSEDSAVYYCVRYSHYYGSGSWYFDVWGTGTTVTVSS VL: DIQMTQSPASLSASVGETVTITCRASENIYSNLAWYQQKQGKSPQLLVNAATNLADGVPSRFSGSGSGTQFSLKINSLQPEDFGSYYCQHFYVTPYMFGSGTKLEIKR",> 10 µg/mL,–,–
"murine monoclonal antibody 8C4 (antibody, V domains shown, also called m8C4) VH: EVQLQESGPELKKPGETVKISCKASGYTFTTYGMSWVKQAPGKGLKWMGRINTYSGVPTYADEFKGRFAFSLENSASTAYLQINNLKNEDTATYFCARGDGGHWFANWGQGTLVTVSA VL: DIQMTQSPSSLSASLGGKVTITCKASQDINKNIAWYQHKPGKGPRLLIWYKSALQPGIPSRFSGSGSGRDYSFSISNLEPEDIATYSCLQYDNLPPTFGGGTKLEIKR",0.15 µg/mL,–,–
